According to patent US20190062411A1 (AstraZeneca / MedImmune, published 2019):
Changes are numbered by the printed parent chain.

B1: Kp3 (antibody, IgG1, V domains shown)
VH: QVQLQESGPGLVKPSETLSLTCTVSGGSMNSNSNTYYWGWIRQPPGKGLEWIGTIHSSGRTYYNPSLKSRVTISVDMSKNQFSLNLTSATAADTAVYYCARDLSGASLAPRRPFNYYYYNMDVWGRGTLVTVSS
VL: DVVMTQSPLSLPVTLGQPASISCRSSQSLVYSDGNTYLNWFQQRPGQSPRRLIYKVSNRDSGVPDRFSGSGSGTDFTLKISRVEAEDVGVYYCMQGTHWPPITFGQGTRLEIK
notes: constant regions are not; also called anti-MrkA mAb Kp3; MAb Kp3
B2: anti-MrkA clone 6 (IgG1) (antibody, V domains shown)
VH: QVQLVQSGAEVRKPGASVTLSCRTSGYTFTSYAVHWVRQAPGQGLEWMGGVNGGNGNTRFSQKFQDRLMIVRDRSANTASMELRSLTSEDTAVYYCARADDCSGVGCHPWFDPWGQGTLVTVSS
VL: SVILTQPPSVSVSPGQTANITCSGDKLGDKYTSWYLQKPGQSPVLLIFQDTKRPSDIPERFSGSNSGNTATLTISGTQAVDEADYYCQAWDSDSGTATFGGGTKLTVL
notes: also called St4_C6; IgG clone 6
B3: Clone 1 Fab (Fab, V domains shown)
VH: B2 VH with L20V, S21F, T28I, V51I, F60I, K63R, V71T, V93I, Q116R
VL: QSVLTQPPSVSVSPGHTASITCSGDKLGDKYVSWYQQKSGQSPVLVMYKDTKRPSGIPERFSGSNSGNTATLAISGTQAVDEADYFCQAWDRSIMIFGGGTKVTVL
notes: also called Clone 1 (Fab format)
B4: anti-MrkA clone 1 (IgG1) (antibody, V domains shown)
VH: B2 VH with L20V, S21F, T28I, V51I, F60I, K63R, V71T, V93I, Q116R
VL: B3 VL
notes: also called St1_C1; IgG clone 1
B5: anti-MrkA clone 5 (IgG1) (antibody, V domains shown)
VH: QVQLVQSGAEVKKPGASLKVSCKASGYTFTAYYMHWVRQAPGHGLEWMGWINPSSGGTNSAQKFQGRVTMTRDTSINTAYMELSRLTSDDTAVYYCARGTIGAAGNYWGQGTLVTVSS
VL: QSVLTQPPSASGTPGQRVTISCSGSRPNIGGNTVNWYQQLPGAAPKLLIYSNSQRPSGVPDRFSGSKYGTSASLAISGLQSDDEADYYCAAWDDSLTGPVFGGGTKLTIL
notes: also called St3_C5; IgG clone 5
B6: Clone 5 Fab (Fab, V domains shown)
VH: B5 VH
VL: B5 VL
notes: also called Clone 5 (Fab format)
B7: anti-MrkA clone 4 (IgG1) (antibody, V domains shown)
VH: QLQLQESGPGLVKPSGTLSLTCAVSGDSIDNANWWSWVRQTPGKGLEWIGEIYHSGTTYYNPSLKSRVTISIDNSKNQFSLALTSVTAADTAVYYCARDRDITSRGTFDVWGRGTMVTVSS
VL: DIQMTQSPSTLSASIGDRVTITCRASEGIYHWLAWYQQKPGKAPKLLIYKASSLASGAPSRFSGSGSGTDFTLTISSLQPDDFATYYCQQYSNYPLTFGGGTKLEIK
notes: also called St2_C4; IgG clone 4
B8: Kp16 (antibody, V domains shown)
VH: QVQLQQSGAEVKKPGASVKVSCKASGYALTTYYMHWVRQAPGQGLQWMGMINPSSGSTIYAQPFRGRVTLTRDTSSGTVFMDLSSLTSEDTAIYYCARGNYGSSFGYWGKGTMVTVSS
VL: not shown

Legend:
[1] = target: T1, biotinylated recombinant his-tagged MrkA, mixture of monomeric and oligomeric MrkA (Klebsiella pneumoniae, UniProt P12267 23-202, biotin-labeled (Pierce kit; sites not stated)); experiment: ELISA, biotinylated MrkA captured by streptavidin (title: anti-MrkA IgG binding to bio-MrkA)
T1 construct: also called biotinylated-MrkA; a mixture of monomeric and multimeric MrkA; not shown: his tag
T1 chain: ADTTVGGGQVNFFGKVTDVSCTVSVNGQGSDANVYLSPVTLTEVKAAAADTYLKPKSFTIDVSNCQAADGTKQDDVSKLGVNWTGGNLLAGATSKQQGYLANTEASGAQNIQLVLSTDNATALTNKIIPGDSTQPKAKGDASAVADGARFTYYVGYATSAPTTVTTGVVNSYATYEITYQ

[2] = target: T2, MrkA on the surface of live or whole K. pneumoniae bacteria (Klebsiella pneumoniae, UniProt P12267 23-202); experiment: whole cell ELISA on K. pneumoniae strain 29011 (title: Kp29011 ELISA)
T2 construct: Target of whole-bacteria ELISA, FACS and confocal assays; The strain is named under assay in each row; On bacteria MrkA is assembled into fimbriae (oligomeric); also called K. pneumoniae MrkA; type III fimbriae major subunit MrkA
T2 chain: T1 chain
Experimental: Briefly, a single colony of K. pneumoniae was inoculated into 2xYT media until the culture reached log phase. Bacteria were coated onto 384-well plates (Nunc MaxiSorp) overnight at 4° C. […] After blocking with PBS supplemented with 4% BSA (PBS-B), the coated plates were incubated with anti-K. pneumoniae antibodies for 1 h. The plates were then washed with PBS-T (PBS+0.1% Tween 20) before HRP-conjugated secondary antibody was added for 1 h followed by washing and TMB (3, 3′, 5, 5′-Tetrametheylbenzidine) substrate addition. Color development was stopped by adding 0.1 N HCL, and the absorbance at 450 nm was measured by microplate reader (Molecular Devices). The data was plotted with Prism software.

[3] = target: T1, biotinylated recombinant his-tagged …; experiment: ELISA, MrkA protein coated directly onto the plate, not biotinylated (title: anti-MrkA IgG binding to MrkA)
[4] = target: T1, biotinylated recombinant his-tagged …; experiment: BLI (Octet), biotinylated MrkA on streptavidin sensors, IgG in solution, 1:1 fit
Experimental: For affinity measurement, two different formats were used. The first used an IgG against a mixture of monomeric and oligomeric MrkA. The second used a Fab against a monomeric MrkA. A ForteBio Octet QK384 instrument was used to study kinetics of the anti-MrkA mAbs. All the assays were done at 200 μl/well in ForteBio 10× kinetic buffer at 30° C. […] Dissociation of the interaction was probed for 600 seconds. Any systematic baseline drift was corrected by subtracting the shift recorded for a sensor loaded with ligand but incubated without analyte. Octet Data Analysis software version 8.0 was used for curve fitting with the binding equations available for a 1:1 interaction model. Global analyses were done using nonlinear least squares fitting. Goodness of fit for the data were assessed by the generated residual plots, R2 and χ2 values.

[5] = target: T3, MrkA with both the N and C terminal deletions (MrkA-N/C-dlt) (Klebsiella pneumoniae, UniProt P12267 41-170); experiment: ELISA on plates coated directly with cleared lysate of E. coli expressing the His-tagged construct; y axis without a label
T3 construct: Lysate of E. coli coated on the ELISA plate; not shown: His tag added at the C terminus
T3 chain: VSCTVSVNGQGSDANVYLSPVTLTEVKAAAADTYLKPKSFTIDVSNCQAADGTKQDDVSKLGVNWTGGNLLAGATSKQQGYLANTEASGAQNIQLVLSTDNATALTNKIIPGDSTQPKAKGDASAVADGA

[6] = target: T4, MrkA with a 40 amino acid N-terminal deletion (MrkA-N-dlt) (Klebsiella pneumoniae, UniProt P12267 41-202); experiment: as above
T4 construct: Lysate of E. coli coated on the ELISA plate; not shown: His tag added at the C terminus
T4 chain: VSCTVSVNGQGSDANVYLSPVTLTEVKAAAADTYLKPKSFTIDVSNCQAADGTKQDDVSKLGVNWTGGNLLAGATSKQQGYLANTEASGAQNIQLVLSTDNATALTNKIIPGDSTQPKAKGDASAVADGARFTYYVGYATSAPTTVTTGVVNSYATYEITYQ

[7] = target: T5, monomeric MrkA (purified, BLI) (Klebsiella pneumoniae, UniProt P12267 23-202); experiment: BLI (Octet), Fab against monomeric MrkA
T5 construct: not shown: N terminal 6x his tag from pET28
T5 chain: T1 chain

Binder	EC50 (read off the curve) [1] [µg/mL]	EC50 (read off the curve) [2] [µg/mL]	EC50 (read off the curve) [3] [µg/mL]	Kd [4] [nM]	koff [4] [s⁻¹]	kon [4] [M⁻¹ s⁻¹]	binding result [5]	binding result [6]	Kd [7] [nM]	koff [7] [s⁻¹]	kon [7] [M⁻¹ s⁻¹]
B1	~0.01	~0.08	~0.01	0.15	1.2e-05	76000	no binding	no binding	–	–	–
B2	~0.01	–	~0.01	8.8	0.0002	22000	–	–	–	–	–
B3	–	–	–	–	–	–	–	–	2.76	0.00034	150000
B4	~0.01	–	~0.01	3.25	0.00017	53000	–	–	–	–	–
B5	~0.2	–	~0.01	3.54	9.2e-05	26000	–	–	–	–	–
B6	–	–	–	–	–	–	–	–	1520	0.0782	50000
B7	~0.1	–	~0.01	3.61	0.000146	40600	–	–	–	–	–
B8	–	~0.08	–	–	–	–	–	–	–	–	–
